Data taken from doi:10.1101/2024.10.17.618658.

Legend:
[1] = biological target: human Juno glycosylated ectodomain (ECD), wild type, with C-terminal SpyTag (human) (UniProt A6ND01); experiment: flow cytometry-based bead-binding assay
[2] = biological target: human Juno ectodomain, infertility-associated variant H177Q, with C-terminal SpyTag (human) (UniProt A6ND01); experiment: AFM-based single-molecule force spectroscopy
[3] = biological target: human Juno glycosylated ectodomain (ECD), wild type, with C-terminal SpyTag (human) (UniProt A6ND01); experiment: AFM-based single-molecule force spectroscopy
[4] = biological target: human Juno ectodomain, infertility-associated variant H177Q, with C-terminal SpyTag (human) (UniProt A6ND01); experiment: flow cytometry-based bead-binding assay

Row | Substance | Kd [1] [µM] | average median peak bond lifetime under clamped force (40-50 pN) [2] [s] | median bond lifetime under clamped force (before the slip-to-catch transition) [3] [s] | median bond lifetime under clamped force (peak of the catch bond, 40-50 pN) [3] [s] | Kd [4] [µM]
1 | human Izumo1 ectodomain K150A with C-terminal SpyTag (from UniProt Q8IYV9 22-292) (domain or fragment) | 0.11 | – | – | – | –
2 | human Izumo1 glycosylated ectodomain (ECD), wild type, with C-terminal SpyTag (from UniProt Q8IYV9 22-292) (domain or fragment) | 0.045 | 0.17 | 0.02 | 0.15 | 0.064
